IC50 data for 16 molecules are collected here from patent US20230056252A1 (Gilead, published 2023).

In assay [1] the target is T1, CD3 expressed on cell-surface of primary human T cells (human, UniProt P07766 23-207; P04234 22-171).
T1 construct: also called cell-surface CD3; human CD3
Description: flow cytometry competition vs murine SP34-AF488 on human T cells, average. For orientation: A flow cytometer gives signals particle by particle.
Description: (§1) Binding of humanized SP34 Fab variants to CD3 expressed on cell-surface of primary human T cells was evaluated in a flow cytometry-based competition assay.

In assay [2] the target is T1, CD3 expressed on cell-surface of …. Described as above. The source holds these as a separate data set.
Description: as §1
(§2) A second round of huSP34 Fab variants were characterized using the same flow cytometry-based competition assay as described above.
For assay [3] the target is unchanged. Description: flow cytometry competition vs murine SP34-AF488 on human T cells, n = 1.
Description: as §1
Assay [4] has the same target. Description: flow cytometry competition vs murine SP34-AF488 on human T cells, n = 2.
Description: as §1
Assay [5] shares this target. Description: flow cytometry competition vs murine SP34-AF488 on human T cells, n = 1. This is another data set of the same source.
Description: as §1, §2
Assay [6] has the same target. Description: flow cytometry competition vs murine SP34-AF488 on human T cells, n = 2. The source holds these as a separate data set.
Description: as §1, §2

T1 sequence (P07766 23-207 limits assumed, chain 1 of 2): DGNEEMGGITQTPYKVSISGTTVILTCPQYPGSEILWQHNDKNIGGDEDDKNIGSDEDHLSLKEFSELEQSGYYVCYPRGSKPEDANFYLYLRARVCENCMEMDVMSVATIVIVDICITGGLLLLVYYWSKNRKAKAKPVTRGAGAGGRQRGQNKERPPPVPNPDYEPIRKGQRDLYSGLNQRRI
T1 sequence (P04234 22-171 limits assumed, chain 2 of 2): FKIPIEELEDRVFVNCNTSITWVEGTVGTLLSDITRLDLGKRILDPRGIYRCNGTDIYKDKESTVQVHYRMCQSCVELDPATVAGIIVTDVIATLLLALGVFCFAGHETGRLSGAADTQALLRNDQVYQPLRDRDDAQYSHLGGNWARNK

B1: mSP34 Fab-HF (Fab, V domains shown)
VH: EVKLLESGGGLVQPKGSLKLSCAASGFTFNTYAMNWVRQAPGKGLEWVARIRSKYNNYATYYADSVKDRFTISRDDSQSILYLQMNNLKTEDTAMYYCVRHGNFGNSYVSWFAYWGQGTLVTVSA
VL: QAVVTQESALTTSPGETVTLTCRSSTGAVTTSNYANWVQEKPDHLFTGLIGGTNKRAPGVPARFSGSLIGDKAALTITGAQTEDEAIYFCALWYSNLWVFGGGTKLTVLG
notes: also called mSP34 chimeric Fab
Broadly, the IC50 is the concentration at which inhibition is half-maximal. Higher therefore signals weaker potency. For B1, the values for the 50% inhibitory concentration (IC50) in assay [1] and in assay [2] were 0.7 µg/mL and 0.68 µg/mL, respectively.

B2: huSP34.2.1 Fab-HF (Fab, V domains shown)
VH: EVQLVESGGGLVQPGGSLRLSCAASGFTFSTYAMNWVRQAPGKGLEWVGRIRSKYNNYATYYAASVKGRFTISRDDSKNSLYLQMNSLKTEDTAMYYCVRHGNFGNSYVSWFAVWGQGTLVTVSS
VL: QAVVTQEPSLTVSPGGTVTLTCRSSTGAVTTSNYANWVQQKPGQAPRGLIGGTNKRAPWTPARFSGSLIGDKAALTLSGAQPEDEAEYYCALWYSNLWVFGGGTKLTVL
Regarding B2, the 50% inhibitory concentration (IC50) was found to be 6.17 µg/mL in assay [3], 3.68 µg/mL in assay [4] and 4.92 µg/mL in assay [1].

B3: huSP34.3.1 Fab-HF (Fab, V domains shown)
VH: EVQLVESGGGLVQPGGSLRLSCAASGFTFNTYAMNWVRQAPGKGLEWVGRIRSKYNNYATYYADSVKGRFTISRDDSKNSLYLQMNSLRTEDTAVYYCVRHGNFGHSYVSWFAYWGQGTLVTVSS
VL: QAVVTQEPSLTVSPGGTVTLTCRSSTGAVTTSNYANWVQQKPGQAPRGLIGGTNKRAPWTPARFSGSLIGDKAALTLSGAQPEDEAEYYCALWYSNLWVFGGGTKLTVL
For the molecule B3, the IC50 is 3.56 µg/mL in assay [3], 2.22 µg/mL in assay [4] and 2.89 µg/mL in assay [1].

B4: huSP34.12.10 Fab-HF (Fab, V domains shown)
VH: EVQLVESGGGLVQPGGSLRLSCAASGFTFSTYAMNWVRQAPGKGLEWVARIRSKYNNYATYYAASVKGRFTISRDDSKNSLYLQMNSLRTEDTAVYYCVRHGNFGHSYVSWFAYWGQGTLVTVSS
VL: QAVVTQPPSLTVSPGGTVTLTCGSSTGAVTTGHYANWVQQKPGQAPRGLIGGTNKRAPGVPARFSGSLSGGKAALTISGAQPEDEAEYYCALWYSNRWVFGGGTKLTVL
Turning to B4, the concentration for half-maximal inhibition (IC50) in assay [5] turned out to be 0.69 µg/mL; in assay [6], 0.33 µg/mL; in assay [2], 0.51 µg/mL.

B5: huSP34.11.10 Fab-HF (Fab, V domains shown)
VH: EVQLVESGGGLVQPGGSLRLSCAASGFTFSTYAMNWVRQAPGKGLEWVGRIRSKYNNYATYYAASVKGRFTISRDDSKNSLYLQMNSLRTEDTAVYYCVRHGNFGHSYVSWFAYWGQGTLVTVSS
VL: QAVVTQPPSLTVSPGGTVTLTCGSSTGAVTTGHYANWVQQKPGQAPRGLIGGTNKRAPGVPARFSGSLSGGKAALTISGAQPEDEAEYYCALWYSNRWVFGGGTKLTVL
In the case of B5, the IC50 in assay [5] worked out at 0.35 µg/mL; in assay [6] it was 0.15 µg/mL; in assay [2], 0.25 µg/mL.

B6: huSP34.4.6 Fab-HF (Fab, V domains shown)
VH: EVQLVESGGGLVQPGGSLRLSCAASGFTFSTYAMNWVRQAPGKGLEWVGRIRSKYNNYATYYAASVKGRFTISRDDSKNSLYLQMNSLRTEDTAVYYCVRHGNFGHSYVSWFAVWGQGTLVTVSS
VL: QAVVTQPPSLTVSPGGTVTLTCGSSTGAVTTGHYANWVQQKPGQAPRGLIGGTSNRAPGVPARFSGSLSGGKAALTISGAQPEDEAEYYCALWYSARWVFGGGTKLTVL
On to B6, for which the half-maximal inhibitory concentration (IC50) in assay [3] turned out to be 18.5 µg/mL; in assay [4] it was 4.2 µg/mL; in assay [1], 11.4 µg/mL.

B7: huSP34.3.2 Fab-HF (Fab, V domains shown)
VH: EVQLVESGGGLVQPGGSLRLSCAASGFTFNTYAMNWVRQAPGKGLEWVGRIRSKYNNYATYYADSVKGRFTISRDDSKNSLYLQMNSLRTEDTAVYYCVRHGNFGHSYVSWFAYWGQGTLVTVSS
VL: QAVVTQEPSLTVSPGGTVTLTCGSSTGAVTTSNYANWVQQKPGQAPRGLIGGTSNRAPWTPARFSGSLLGGKAALTLSGAQPEDEAEYYCALWYSNLWVFGGGTKLTVL
As for B7, the 50% inhibitory concentration (IC50) is 11.9 µg/mL in assay [3], 6.44 µg/mL in assay [4] and 9.19 µg/mL in assay [1].

B8: huSP34.12.7 Fab-HF (Fab, V domains shown)
VH: EVQLVESGGGLVQPGGSLRLSCAASGFTFSTYAMNWVRQAPGKGLEWVARIRSKYNNYATYYAASVKGRFTISRDDSKNSLYLQMNSLRTEDTAVYYCVRHGNFGHSYVSWFAYWGQGTLVTVSS
VL: QAVVTQEPSLTVSPGGTVTLTCRSSTGAVTTGHYANWVQQKPGQAPRGLIGGTNKRAPGVPARFSGSLLGGKAALTISGAQPEDEAEYYCALWYSNLWVFGGGTKLTVL
B8: the half-maximal inhibitory concentration (IC50) in assay [5] came to 0.77 µg/mL; in assay [6], 0.39 µg/mL; in assay [2], 0.58 µg/mL.

B9: huSP34.12.9 Fab-HF (Fab, V domains shown)
VH: EVQLVESGGGLVQPGGSLRLSCAASGFTFSTYAMNWVRQAPGKGLEWVARIRSKYNNYATYYAASVKGRFTISRDDSKNSLYLQMNSLRTEDTAVYYCVRHGNFGHSYVSWFAYWGQGTLVTVSS
VL: QAVVTQPPSLTVSPGGTVTLTCGSSTGAVTTGHYANWVQQKPGQAPRGLIGGTNKRAPGVPARFSGSLSGGKAALTISGAQPEDEAEYYCALWYSNLWVFGGGTKLTVL
Turning to B9, the IC50 in assay [5] stood at 0.97 µg/mL; in assay [6], 0.49 µg/mL; in assay [2], 0.73 µg/mL.

B10: huSP34.3.5 Fab-HF (Fab, V domains shown)
VH: EVQLVESGGGLVQPGGSLRLSCAASGFTFNTYAMNWVRQAPGKGLEWVGRIRSKYNNYATYYADSVKGRFTISRDDSKNSLYLQMNSLRTEDTAVYYCVRHGNFGHSYVSWFAYWGQGTLVTVSS
VL: QAVVTQEPSLTVSPGGTVTLTCGSSTGAVTTGHYANWVQQKPGQAPRGLIGGTSNRAPWTPARFSGSLLGGKAALTLSGAQPEDEAEYYCALWYSARWVFGGGTKLTVL
Regarding B10, the half-inhibitory concentration (IC50) in assay [3] was 12.9 µg/mL; in assay [4] it was 10 µg/mL; in assay [1] it was 11.4 µg/mL.

B11: huSP34.2.2 Fab-HF (Fab, V domains shown)
VH: EVQLVESGGGLVQPGGSLRLSCAASGFTFSTYAMNWVRQAPGKGLEWVGRIRSKYNNYATYYAASVKGRFTISRDDSKNSLYLQMNSLKTEDTAMYYCVRHGNFGNSYVSWFAVWGQGTLVTVSS
VL: QAVVTQEPSLTVSPGGTVTLTCGSSTGAVTTSNYANWVQQKPGQAPRGLIGGTSNRAPWTPARFSGSLLGGKAALTLSGAQPEDEAEYYCALWYSNLWVFGGGTKLTVL
With B11, the results for the IC50 in assay [3], in assay [4] and in assay [1] were > 20 µg/mL, 16.6 µg/mL and 16.6 µg/mL, respectively.

B12: huSP34.13.9 Fab-HF (Fab, V domains shown)
VH: EVQLVESGGGLVQPGGSLRLSCAASGFTFSTYAMNWVRQAPGKGLEWVGRIRSKYNNYATYYAASVKGRFTISRDDSKNTLYLQMNSLRTEDTAVYYCVRHGNFGHSYVSWFAYWGQGTLVTVSS
VL: QAVVTQPPSLTVSPGGTVTLTCGSSTGAVTTGHYANWVQQKPGQAPRGLIGGTNKRAPGVPARFSGSLSGGKAALTISGAQPEDEAEYYCALWYSNLWVFGGGTKLTVL
On to B12, for which the half-maximal inhibitory concentration (IC50) in assay [5] is 0.48 µg/mL; in assay [6], 0.25 µg/mL; in assay [2], 0.36 µg/mL.

B13: huSP34.13.7 Fab-HF (Fab, V domains shown)
VH: EVQLVESGGGLVQPGGSLRLSCAASGFTFSTYAMNWVRQAPGKGLEWVGRIRSKYNNYATYYAASVKGRFTISRDDSKNTLYLQMNSLRTEDTAVYYCVRHGNFGHSYVSWFAYWGQGTLVTVSS
VL: QAVVTQEPSLTVSPGGTVTLTCRSSTGAVTTGHYANWVQQKPGQAPRGLIGGTNKRAPGVPARFSGSLLGGKAALTISGAQPEDEAEYYCALWYSNLWVFGGGTKLTVL
B13: the IC50 worked out at 0.43 µg/mL in assay [5], 0.18 µg/mL in assay [6] and 0.31 µg/mL in assay [2].

B14: huSP34.12.8 Fab-HF (Fab, V domains shown)
VH: EVQLVESGGGLVQPGGSLRLSCAASGFTFSTYAMNWVRQAPGKGLEWVARIRSKYNNYATYYAASVKGRFTISRDDSKNSLYLQMNSLRTEDTAVYYCVRHGNFGHSYVSWFAYWGQGTLVTVSS
VL: QAVVTQEPSLTVSPGGTVTLTCGSSTGAVTTGHYANWVQQKPGQAPRGLIGGTNKRAPGVPARFSGSLLGGKAALTISGAQPEDEAEYYCALWYSNRWVFGGGTKLTVL
On to B14, for which the half-inhibitory concentration (IC50) in assay [5] was found to be 0.57 µg/mL; in assay [6] it was 0.29 µg/mL; in assay [2], 0.43 µg/mL.

B15: huSP34.4.1 Fab-HF (Fab, V domains shown)
VH: EVQLVESGGGLVQPGGSLRLSCAASGFTFSTYAMNWVRQAPGKGLEWVGRIRSKYNNYATYYAASVKGRFTISRDDSKNSLYLQMNSLRTEDTAVYYCVRHGNFGHSYVSWFAVWGQGTLVTVSS
VL: QAVVTQEPSLTVSPGGTVTLTCRSSTGAVTTSNYANWVQQKPGQAPRGLIGGTNKRAPWTPARFSGSLIGDKAALTLSGAQPEDEAEYYCALWYSNLWVFGGGTKLTVL
In the case of B15, the IC50 turned out to be 9.57 µg/mL in assay [3], 5.9 µg/mL in assay [4] and 7.74 µg/mL in assay [1].

B16: huSP34.2.6 Fab-HF (Fab, V domains shown)
VH: EVQLVESGGGLVQPGGSLRLSCAASGFTFSTYAMNWVRQAPGKGLEWVGRIRSKYNNYATYYAASVKGRFTISRDDSKNSLYLQMNSLKTEDTAMYYCVRHGNFGNSYVSWFAVWGQGTLVTVSS
VL: QAVVTQPPSLTVSPGGTVTLTCGSSTGAVTTGHYANWVQQKPGQAPRGLIGGTSNRAPGVPARFSGSLSGGKAALTISGAQPEDEAEYYCALWYSARWVFGGGTKLTVL
Turning to B16, the 50% inhibitory concentration (IC50) came to 4.68 µg/mL in assay [3], 3.4 µg/mL in assay [4] and 4.04 µg/mL in assay [1].
